{"source": "paper PMC3299815", "about": "(Biochemistry, 2012)", "biological_target": "the molecule itself", "test": "SEC", "data": [{"protein": "Rv0203-notag (natural protein) AMAASDPCAASEVARTVGSVAKSMGDYLDSHPETNQVMTAVLQQQVGPGSVASLKAHFEANPKVASDLHALSQPLTDLSTRCSLPISGLQAIGLMQAVQGARR", "values": [{"measurement": "stoichiometry N", "value": 2}]}]}
